This is an account of results in article PMC2196183.

In this experiment the target is GSK3 binding protein (GBP) on beads (Xenopus). Nature of the experiment: pull-down.

Several values for one entry are separate records, joined by “and”; a condition that tells them apart may be missing. Equal entries are not always repeated.

B1: dishevelled (dsh), radiolabeled (natural protein)
chain: MAETKVIYHLDEEETPYLVKVPVPATDIRLRDFKAALGRGHAKYFFKAMDQDFGVVKEEISDDNAKLPCFNDRVVSWLASSEGSQPDSAPPAPATEVRPEPPPPVPPPIPPPPAERTSGIGDSRPPSFHPNVSGSTEQLDQDNESVISMRRDRVRRRESSEQAGVGRGVNGRTERHLSGYESSSTLLTSEIETSICDSEEDDTMSRFSSSTEQSSASRLLKRHRRRRKQRPPRLERTSSFSSVTDSTMSLNIITVTLNMEKYNFLGISIVGQSNERGDGGIYIGSIMKGGAVAADGRIEPGDMLLQVNDINFENMSNDDAVRVLRDIVHKPGPIVLTVAKCWDPSPQGYFTLPRNEPIHPIDPAAWVSHSAALSGSFPVYPGSASMSSMTSSTSVTETELSHALPPVSLFSLSVHTDLASVVKVMASPESGLEVRDRMWLKITIPNAFLGSDVVDWLYHHVEGFQDRREARKFASNLLKAGFIRHTVNKITFSEQCYYIFGDLTGCENYMTNLSLNDNDGSSGASDQDTLAPLPLPGASPWPLLPTFSYQYQAPHPYSTQPPAYHELSSYSYGMGSAGSQHSEGSRSSGSNRSDGGRGMQKDDRSGVAGVGGGDSKSGSGSESEYSTRSSIRRVGGGEAGPPSERSTSSRLPPHHPPSVHSYAAPGVPLSYNPMMLMMMPPPPLPPPGVCPPNSSVPPGAPPLVRDLASVPPELTATRQSFHMAMGNPSEFFVDVM
modifications: [35S]methionine label
Turning to B1, the fold increase in binding with 1 μM CK1ε against buffer- or GSK3-treated extracts is 4 fold and 5 fold.
